Test results as given in paper PMC6052341, “Phosphorylation of FtsZ and FtsA by a DNA Damage-Responsive Ser/Thr Protein Kinase Affects Their Functional Interactions in Deinococcus radiodurans” (mSphere, 2018).

T1: P-FtsA, phosphorylated form of FtsA of Deinococcus radiodurans, purified recombinant (Deinococcus radiodurans, UniProt Q9RWN6 1-517, phosphorylated by co-expressed RqkA (checked with anti-phospho-Ser/Thr antibodies); sites reported for FtsA: threonine 272, serine 370 and serine 386)
T1 construct: FtsA, cell division protein of Deinococcus radiodurans R1; same plasmid as m3, co-expressed with the kinase RqkA; also called phosphorylated FtsA
T1 sequence (looked up): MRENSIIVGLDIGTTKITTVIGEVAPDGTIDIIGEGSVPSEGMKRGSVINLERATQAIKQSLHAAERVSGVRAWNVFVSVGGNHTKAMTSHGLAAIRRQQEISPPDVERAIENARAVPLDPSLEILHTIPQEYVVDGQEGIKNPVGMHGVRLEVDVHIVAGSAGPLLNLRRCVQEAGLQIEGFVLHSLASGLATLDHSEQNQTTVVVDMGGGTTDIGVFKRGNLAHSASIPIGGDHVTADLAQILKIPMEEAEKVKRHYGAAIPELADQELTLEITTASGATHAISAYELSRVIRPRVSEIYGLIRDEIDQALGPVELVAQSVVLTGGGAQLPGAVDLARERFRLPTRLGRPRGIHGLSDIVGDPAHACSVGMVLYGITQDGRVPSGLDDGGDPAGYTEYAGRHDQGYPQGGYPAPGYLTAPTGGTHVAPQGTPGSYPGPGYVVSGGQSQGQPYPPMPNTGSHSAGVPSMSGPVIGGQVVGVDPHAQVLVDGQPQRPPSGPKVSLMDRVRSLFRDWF

B1: FtsA of Deinococcus radiodurans, purified recombinant (natural protein, UniProt Q9RWN6 1-517, looked up)
chain: T1 sequence (looked up)
B2: FtsZ of Deinococcus radiodurans, purified recombinant (natural protein, UniProt Q9RWN5 1-371, looked up)
chain: MQAARIRVIGLGGAGNNAVNRMIESGLEGVEFIAGNTDAQVLAKSHAEVRIQLGDRLTRGLGAGADPKVGEEAAVEDRDRIKEYLDDTDMLFITAGMGGGTGTGSAPVVAEIAREMGILTVAIVTRPFKFEGPKRMRVAEEGMSKLADRVDGMIVVNNEKLLTAVDKKVSFREAFLIADRVLYYGVKGISDVINVEGMINLDFADVRNLLANSGTVLMGIGAGRGDKMAEEAAMSAIHSPLLERGIEGARRILVNVTGGYDLSMTDANEIVEKIREATGFDDPDILFGITPDEAAGDEVRVTVIATGFGDNTYAAPLGGVVSSGRGGYDQGGYGSGLVRPVRGGQGGLGGGSSYDPKDYDIPAFLRNVGGQ
notes: FtsZ, cell division protein of Deinococcus radiodurans R1; also called FZ; unphosphorylated FtsZ; source: E. coli BL21(DE3) pLysS from pFTSZ, purified (nickel-chelating Sepharose, Ni-NTA agarose)
B3: P-FtsZ, phosphorylated form of FtsZ of Deinococcus radiodurans, purified recombinant (natural protein, UniProt Q9RWN5 1-371, looked up)
chain: B2 chain
modifications: phosphorylated by co-expressed RqkA (checked with anti-phospho-Ser/Thr antibodies); sites mapped on FtsZ phosphorylated by RqkA in vitro: serine 235 and serine 335
notes: FtsZ, cell division protein of Deinococcus radiodurans R1; same plasmid as m1, co-expressed with the kinase RqkA; also called PFZ; phosphorylated FtsZ

Experiments:
[1] = molecular target: B2; assay: cell-based or functional assay
[2] = molecular target: T1, P-FtsA, phosphorylated form of FtsA of …; assay: SPR; FtsA or P-FtsA (25 µM) immobilised on a bare gold sensor chip by EDC-NHS chemistry at 20°C, about 200 response units; running buffer 20 mM Tris pH 7.6; FtsZ or P-FtsZ (6 to 30 µM) with 1 mM GTP and 1 mM MgCl2 in the mobile phase; AutoLab Esprit; conditions: both partners purified
[3] = molecular target: B1; assay: as above; conditions: both partners purified
[4] = molecular target: T1, P-FtsA, phosphorylated form of FtsA of …; assay: SPR; reverse manner: FtsZ or P-FtsZ (20 µM) immobilised on a bare gold sensor chip; FtsA or P-FtsA (4 to 20 µM) in the mobile phase; conditions: both partners purified
[5] = molecular target: B1; assay: as above; conditions: both partners purified

| stimulation of the GTPase activity of 5 µM FtsZ by 5 µM FtsA (malachite green assay; TLC of [32P]GTP to [32P]GDP) [1] | Kd [2] | Kd [3] | Kd [4] | Kd [5] | Binder |
| --- | --- | --- | --- | --- | --- |
| ~1.5 fold |  |  |  |  | B1 |
|  | 8.35 µM | 6.83 µM | 5.17 µM | 7.93 µM | B2 |
|  | 15 µM | 10.3 µM | 58.3 µM | 65.2 µM | B3 |
